Laboratory results published in paper PMC12316308, “Interactions of substrates and phosphinyl containing inhibitors with bacterial and human zinc proteases” (PLOS One, 2025).

Tested on: T1, COc1ccc2c(CC(=O)N3CCC[C@H]3C(=O)N[C@@H](CC(C)C)C(=O)NCC(=O)N[C@@H](CC(C)C)C(=O)N[C@@H](CNc3ccc([N+](=O)[O-])cc3[N+](=O)[O-])C(=O)N[C@@H](C)C(=O)N[C@@H](CCCNC(=N)N)C(N)=O)cc(=O)oc2c1
T1 construct: made in house; host or cells: Sf9 and High Five insect cells
Assay: Determination of Km values
Type: biochemical, human
Details: other: MMP-9(MT); 1% DMSO; n = 3; pH 7.5
Procedure: Determination of Km values. […] Substrate concentrations used were 1–10 µM in a total volume of 100 µL of 0.1 M Hepes pH 7.5 containing 10 mM CaCl2, 0.005% Brij-35 and 1.0% DMSO. […] Initial rate experiments were performed as described above to determine enzyme reaction velocities using a LS 50 Luminescence Spectrometer and the FL WinLab Software Package (Perkin Elmer). The Km and s.d values were calculated with Graph Pad Prism 5 using the Michaelis-Mention equation. […] During these experiments, reactions were monitored for only one minute, and initial reaction velocities were determined from the activity curves.

Chain of Mag-Trypsin activated recombinant MMP-9 (MMP-9(MT)) (Homo sapiens) (chain, as listed by the source): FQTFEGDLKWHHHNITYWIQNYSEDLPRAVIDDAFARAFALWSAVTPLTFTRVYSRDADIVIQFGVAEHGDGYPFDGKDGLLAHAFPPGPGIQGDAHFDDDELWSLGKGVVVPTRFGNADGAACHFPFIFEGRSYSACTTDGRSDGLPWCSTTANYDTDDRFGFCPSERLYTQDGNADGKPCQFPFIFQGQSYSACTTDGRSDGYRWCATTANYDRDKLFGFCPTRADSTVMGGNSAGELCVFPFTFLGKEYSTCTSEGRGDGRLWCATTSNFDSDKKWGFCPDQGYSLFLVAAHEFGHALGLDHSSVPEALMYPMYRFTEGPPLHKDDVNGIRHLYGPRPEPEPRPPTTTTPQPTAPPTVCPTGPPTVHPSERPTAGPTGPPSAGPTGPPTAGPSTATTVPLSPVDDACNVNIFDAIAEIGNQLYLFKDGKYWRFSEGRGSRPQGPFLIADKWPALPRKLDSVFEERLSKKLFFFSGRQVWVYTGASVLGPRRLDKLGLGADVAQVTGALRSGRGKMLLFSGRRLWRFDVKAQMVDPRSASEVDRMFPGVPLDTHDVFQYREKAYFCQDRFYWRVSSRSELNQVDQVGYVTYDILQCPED

## Mag-Trypsin activated recombinant MMP-9 (MMP-9(MT)) (Homo sapiens)
  Km: 2.7 ± 0.5 µM
